The test deals with primary T cells. The test can be described thus: AP1903-dependent cytotoxicity in primary T cells transduced with caspase variants. The settings on record: AP1903 at Day 0 and day 4. Type of test: cell-based, human. How it is done: The effects of various caspase polypeptides at mostly single copy in primary T cells was assayed. This may reflect more accurately how these suicide genes will be used therapeutically.
Primary T cells from healthy donors (n=6) were transduced with retrovirus encoding mutant or wild-type iCasp9 or iCasp9-D330A, and the ΔCD19 cell surface marker. Following transduction, iCasp9-transduced T cells were purified using CD19-microbeads and a magnetic column.

B1: F404Y: chimeric modified Caspase-9 polypeptide (protein)
chain: VDGFGDVGALESLRGNADLAYILSMEPCGHCLIINNVNFCRESGLRTRTGSNIDCEKLRRRFSSLHFMVEVKGDLTAKKMVLALLELARQDHGALDCCVVVILSHGCQASHLQFPGAVYGTDGCPVSVEKIVNIFNGTSCPSLGGKPKLFFIQACGGEQKDHGFEVASTSPEDESPGSNPEPDATPFQEGLRTFDQLDAISSLPTPSDIFVSYSTFPGFVSWRDPKSGSWYVETLDDIFEQWAHSEDLQSLLLRVANAVSVKGIYKQMPGCYNFLRKKLFFKTSASRA
As for B1, the “killing of target T cells within 10 days, in words” value is “indistinguishable from wild type Caspase-9 polypeptide or D330A”.
